Laboratory results taken from PMC11969024, “Development of chemokine network inhibitors using combinatorial saturation mutagenesis” (Communications Biology, 2025).
Each block holds one molecule with its values, some of them ahead of it.

What was measured:
THP1 cells = assay: Chemokine dose-response, THP1 cell migration; format: cell-based, human; conditions: mean of biological replicates (2-7); for Mean pEC80: 3-parameter log-logistic fit, maximum fixed at 100%
Procedure: Cell lines were confirmed mycoplasma free by monthly testing using a MycoAlert^TM kit (LT07-118, Lonza) following the manufacturer’s instructions. THP1 cells: THP1 cells (ECACC 88081201, a human monocyte leukemia cell line[51]) were obtained from ECACC and were cultured in T175 flasks at 0.3-1 × 10^6 cells/mL in Roswell Park Memorial Institute (RPMI) 1640 medium (R0883, Sigma) with 10% FBS (F9665, Sigma) and 5mM L-glutamine (G7513, Sigma), 37 °C, 5% CO2. J:CXCR1 cells: The J:CXCR1 cell line was cultured in the same manner as THP1 cells at 0.15-1 × 10^6 cells per mL[37]. Activated T-cells: T-cells were isolated, activated and expanded as follows. Briefly, density gradient centrifugation using Lymphoprep^TM density gradient medium (07801, […] Technologies) and a SepMate^TM isolation tube (85450, […] Technologies) was used to isolate peripheral blood mononuclear cells from human leukocyte cones. Two rounds of purification using a human CD8 + T-cell isolation kit (480011, BioLegend) were used to isolate CD8 + T-cells from peripheral blood mononuclear cells. Activation of CD8 + T-cells was performed in ImmunoCult^TM-XF T-cell expansion medium (10982, […] Technologies) with an anti-CD3/anti-CD28 T-cell activator at 25 μl/ml (10991, […] Technologies), supplemented with 10 ng/ml recombinant human IL-2 (200-02, PeproTech) with 1% penicillin/streptomycin. T-cells were passaged every 2–3 days in TexMACS medium (130-097-196, Miltenyi Biotec), supplemented with 10 ng/ml human IL-2 (200-05-250, Peprotech) and incubated at 37 °C in 5% CO2. CD8 + T-cells were frozen at day 10-13 after initial activation, at 20×10^6 cell/ml in TexMACS medium supplemented with 10% DMSO (D2650, Sigma) in liquid nitrogen. Activated CD8^+ T-cells were recovered in TexMACs medium at 0.3 × 10^6 cell/ml and incubated at 37 °C in 5% CO2, 24 h prior to use. For buffy coat experiments a mixture of primary human monocytes, granulocytes and lymphocytes was isolated from human buffy coat. Briefly, RBCs were sedimented in HetaSep (07806, […] Technologies) with 1 mL of HetaSep per 5 mL of blood for 15 min at 37 °C. The buffy coat layer was collected from the top and washed in 50 ml MACS buffer (PBS (P4417, Sigma), 0.5% BSA (A7030, Sigma), 0.075% EDTA (E5134, Sigma), pH 7.2), by centrifugation at 2000 g for 10 min at room temperature. The pellet was resuspended in 10 mL of 1x RBC lysis solution (130-094-183, Miltenyi Biotec) and lysed for 10 min at room temperature. The cells were then washed in MACS buffer twice as above. The final pellet was resuspended in 1 mL of MACS buffer per 5 mL of initial blood volume and counted using cell size FSC-H/SSC-H parameters with gate settings previously defined by immunostaining (see below). The leukocytes were then resuspended in assay buffer for cell migration and used within 30 min of isolation.
Cell counts were determined using an ATTUNE NxT Flow Cytometer with Cytkick autosampler (ThermoFisher), based on cell size parameters FSC-H/SSC-H, with previously defined gate settings. FSC-H/SSC-H gate settings for primary white blood cells from buffy coats were determined using flow cytometry to establish the granulocyte, monocyte and lymphocyte populations (Supplementary Fig. 13). Briefly, cells were labelled with anti-CD3 (Miltenyi Biotec, 130-113-135) to identify the T cell population, anti-CD14 (Miltenyi Biotec, 130-110-578) to identify the monocyte population, and with anti-CD16 (Miltenyi Biotec, 130-113-951) to identify the granulocyte population. Negative control cells were labelled with anti-human IgG1 (Miltenyi Biotec, 130-113-434). All antibodies were allophycocyanin (APC) conjugated. 100,000 white blood cells were added to Eppendorf tubes and centrifuged at 300 g for 3 min. The supernatant was discarded, and the cells resuspended in 98 µL of MACS buffer (1× PBS, 2 mM EDTA and 0.5% BSA, sterile filtered). 2 µl of antibody was added to the cells. […]

activated T-cells (ATC) = assay: Chemokine dose-response, activated T-cell (ATC) migration; format: cell-based, human; conditions: mean of biological replicates (3-6)
Procedure: Cell lines were confirmed mycoplasma free by monthly testing using a MycoAlert^TM kit (LT07-118, Lonza) following the manufacturer’s instructions. THP1 cells: THP1 cells (ECACC 88081201, a human monocyte leukemia cell line[51]) were obtained from ECACC and were cultured in T175 flasks at 0.3-1 × 10^6 cells/mL in Roswell Park Memorial Institute (RPMI) 1640 medium (R0883, Sigma) with 10% FBS (F9665, Sigma) and 5mM L-glutamine (G7513, Sigma), 37 °C, 5% CO2. J:CXCR1 cells: The J:CXCR1 cell line was cultured in the same manner as THP1 cells at 0.15-1 × 10^6 cells per mL[37]. Activated T-cells: T-cells were isolated, activated and expanded as follows. […] The final pellet was resuspended in 1 mL of MACS buffer per 5 mL of initial blood volume and counted using cell size FSC-H/SSC-H parameters with gate settings previously defined by immunostaining (see below). […]
Cell counts were determined using an ATTUNE NxT Flow Cytometer with Cytkick autosampler (ThermoFisher), based on cell size parameters FSC-H/SSC-H, with previously defined gate settings. FSC-H/SSC-H gate settings for primary white blood cells from buffy coats were determined using flow cytometry to establish the granulocyte, monocyte and lymphocyte populations (Supplementary Fig. 13). […]

B1: CCL8: human chemokine, Peprotech 300-15 (protein, UniProt P80075 24-99, looked up)
C-C motif chemokine 8: QPDSVSIPITCCFNVINRKIPIQRLESYTRITNIQCPKEAVIFKTKRGKEVCADPKERWVRDSMKHLDQIFQNLKP
- Mean pEC80 (THP1 cells): 7.84 [M]
- Mean pEC50 (THP1 cells): 8.19 [M]

B3: CCL14: human chemokine, Peprotech 300-38B (protein, UniProt Q16627 20-93, looked up)
C-C motif chemokine 14: TKTESSSRGPYHPSECCFTYTTYKIPRQRIMDYYETNSQCSKPGIVFITKRGHSVCTNPSDKWVQDYIKDMKEN
- Mean pEC80 (THP1 cells): 9.23 [M]
- Mean pEC50 (THP1 cells): 9.61 [M]

Now from value to molecule, other results behind:

- Mean pEC50 (activated T-cells (ATC)): 7.98 [M]
B2: CCL21: human chemokine, Peprotech 300-35A (protein)
chain: SDGGAQDCCLKYSQRKIPAKVVRSYRKQEPSLGCSIPAILFLPRKRSQAELCADPKELWVQQLMQHLDKTPSPQKPAQGCRKDRGASKTGKKGKGSKGCKRTERSQTPKGP
- Mean pEC80 (activated T-cells (ATC)): 7.42 [M]

- Mean pEC50 (THP1 cells): 8.97 [M]
B4: CCL23: human chemokine, Biolegend 587002 (protein, UniProt P55773 22-120, looked up)
C-C motif chemokine 23: RVTKDAETEFMMSKLPLENPVLLDRFHATSADCCISYTPRSIPCSLLESYFETNSECSKPGVIFLTKKGRRFCANPSDKQVQVCMRMLKLDTRIKTRKN
- Mean pEC80 (THP1 cells): 8.66 [M]
